Data: article doi:10.1101/2023.04.01.535177 (bioRxiv, 2023)

Experiments:
Test in all cases: SEC
[1] = target: Parsonsia alboflavescens homospermidine synthase, single mutant V269I (IXXXD motif) (Parsonsia alboflavescens)
[2] = target: Parsonsia alboflavescens homospermidine synthase, double mutant V269I D273N (IXXXN motif) (Parsonsia alboflavescens)
[3] = target: Parsonsia alboflavescens homospermidine synthase, single mutant D273N (VXXXN motif) (Parsonsia alboflavescens)
SEC = target: the molecule itself

**Q.** With “Parsonsia alboflavescens homospermidine synthase, single mutant V269I (IXXXD motif) (enzyme)” as the molecule, how does the stoichiometry N [1] read?
**A.** Its stoichiometry N is 4.

**Q.** With “Parsonsia alboflavescens homospermidine synthase, double mutant V269I D273N (IXXXN motif) (enzyme)” as the molecule, how does the stoichiometry N [2] read?
**A.** The stoichiometry N was 4.

**Q.** “Parsonsia alboflavescens homospermidine synthase, single mutant D273N (VXXXN motif) (enzyme)” was tested. Which stoichiometry N [3] did it give?
**A.** The stoichiometry N was 4.

B1: Parsonsia alboflavescens homospermidine synthase, wild type (VXXXD motif) (enzyme, UniProt A0A2P1M5T0 1-374, looked up)
chain: MGDDAIRQNFLDSARSNVFKALESLEGCKKIKGYDFNKGVNHRELLLSMVSTGFQASNLGDAIDVINQMRAWKLSDEPIPENCKEQEKDPKFRDSVRCKVFLGFTSNLISSGVRETIRYLAQHRMIDVLVTTAGGIEEDFIKCLAPTFKGDFSLPGAALRSKGLNRIGNLLVPNDNYCKFEDWIMPIFDKMLEEQLEEKVLWTPSRVIARLGKEINDESSYLYWAYKNKIPVYCPAITDGSIGDMLYFHSFRNPASLIVDIVQDVRNMDDEIVLAGLRKTGIIILGGGLPKHHICNANMMRNGADFAVFINTAQEFDGSDSGARPDEAISWGKIRSTAKHVKVHCDATIAFPLLVAETFAKGKSTWTKYLGYIY
**Q.** How did the “stoichiometry N” value (SEC) turn out when B1 was run?
**A.** Its value is 4.
